In patent publication US20260274985A1 (MYTHIC THERAPEUTICS, published 2026):

T1: Human TROP2 Protein, His Tag (Acro Biosystems) (human, UniProt P09758 27-274)
T1 construct: not shown: His tag
T1 sequence (looked up): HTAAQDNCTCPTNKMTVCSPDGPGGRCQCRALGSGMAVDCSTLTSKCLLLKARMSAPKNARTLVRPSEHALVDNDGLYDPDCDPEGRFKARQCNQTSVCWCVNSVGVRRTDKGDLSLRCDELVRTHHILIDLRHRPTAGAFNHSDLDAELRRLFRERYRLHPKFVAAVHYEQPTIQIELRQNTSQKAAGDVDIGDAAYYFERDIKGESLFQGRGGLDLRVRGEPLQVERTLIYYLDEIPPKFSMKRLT


Molecular target: T1, Human TROP2 Protein, His Tag (Acro …)
Test: BLI (Octet) [1/2]

Binder	binding result
MYT12324 (antibody, V domains shown, sacituzumab VH 33, 60, 66 -> H) VH: QVQLQQSGSELKKPGASVKVSCKASGYTFTNYHMNWVKQAPGQGLKWMGWINTYTGEPTHTDDFKHRFAFSLDTSVSTAYLQISSLKADDTAVYFCARGGFGSSYWYFDVWGQGSLVTVSS VL: DIQLTQSPSSLSASVGDRVSITCKASQDVSIAVAWYQQKPGKAPKLLIYSASYRYTGVPDRFSGSGSGTDFTLTISSLQPEDFAVYYCQQHYITPLTFGAGTKVEIK	binds
MYT12333 (antibody, V domains shown, sacituzumab VL 30, 51 -> H) VH: QVQLQQSGSELKKPGASVKVSCKASGYTFTNYGMNWVKQAPGQGLKWMGWINTYTGEPTYTDDFKGRFAFSLDTSVSTAYLQISSLKADDTAVYFCARGGFGSSYWYFDVWGQGSLVTVSS VL: DIQLTQSPSSLSASVGDRVSITCKASQDVHIAVAWYQQKPGKAPKLLIYSHSYRYTGVPDRFSGSGSGTDFTLTISSLQPEDFAVYYCQQHYITPLTFGAGTKVEIK	binds
MYT12326 (antibody, V domains shown, sacituzumab VH 33, 64, 66 -> H) VH: QVQLQQSGSELKKPGASVKVSCKASGYTFTNYHMNWVKQAPGQGLKWMGWINTYTGEPTYTDDHKHRFAFSLDTSVSTAYLQISSLKADDTAVYFCARGGFGSSYWYFDVWGQGSLVTVSS VL: DIQLTQSPSSLSASVGDRVSITCKASQDVSIAVAWYQQKPGKAPKLLIYSASYRYTGVPDRFSGSGSGTDFTLTISSLQPEDFAVYYCQQHYITPLTFGAGTKVEIK	binds

Continued, values first:

binding result	Binder
binds	MYT12332 (antibody, V domains shown, sacituzumab VL 30, 33 -> H) VH: QVQLQQSGSELKKPGASVKVSCKASGYTFTNYGMNWVKQAPGQGLKWMGWINTYTGEPTYTDDFKGRFAFSLDTSVSTAYLQISSLKADDTAVYFCARGGFGSSYWYFDVWGQGSLVTVSS VL: DIQLTQSPSSLSASVGDRVSITCKASQDVHIAHAWYQQKPGKAPKLLIYSASYRYTGVPDRFSGSGSGTDFTLTISSLQPEDFAVYYCQQHYITPLTFGAGTKVEIK
binds	MYT12328 (antibody, V domains shown, sacituzumab VH 60, 64, 65 -> H) VH: QVQLQQSGSELKKPGASVKVSCKASGYTFTNYGMNWVKQAPGQGLKWMGWINTYTGEPTHTDDHHGRFAFSLDTSVSTAYLQISSLKADDTAVYFCARGGFGSSYWYFDVWGQGSLVTVSS VL: DIQLTQSPSSLSASVGDRVSITCKASQDVSIAVAWYQQKPGKAPKLLIYSASYRYTGVPDRFSGSGSGTDFTLTISSLQPEDFAVYYCQQHYITPLTFGAGTKVEIK
binds	MYT12334 (antibody, V domains shown, sacituzumab VL 30, 52 -> H) VH: QVQLQQSGSELKKPGASVKVSCKASGYTFTNYGMNWVKQAPGQGLKWMGWINTYTGEPTYTDDFKGRFAFSLDTSVSTAYLQISSLKADDTAVYFCARGGFGSSYWYFDVWGQGSLVTVSS VL: DIQLTQSPSSLSASVGDRVSITCKASQDVHIAVAWYQQKPGKAPKLLIYSAHYRYTGVPDRFSGSGSGTDFTLTISSLQPEDFAVYYCQQHYITPLTFGAGTKVEIK
binds	MYT12325 (antibody, V domains shown, sacituzumab VH 33, 64, 65 -> H) VH: QVQLQQSGSELKKPGASVKVSCKASGYTFTNYHMNWVKQAPGQGLKWMGWINTYTGEPTYTDDHHGRFAFSLDTSVSTAYLQISSLKADDTAVYFCARGGFGSSYWYFDVWGQGSLVTVSS VL: DIQLTQSPSSLSASVGDRVSITCKASQDVSIAVAWYQQKPGKAPKLLIYSASYRYTGVPDRFSGSGSGTDFTLTISSLQPEDFAVYYCQQHYITPLTFGAGTKVEIK
binds	MYT12329 (antibody, V domains shown, sacituzumab VH 60, 64, 66 -> H) VH: QVQLQQSGSELKKPGASVKVSCKASGYTFTNYGMNWVKQAPGQGLKWMGWINTYTGEPTHTDDHKHRFAFSLDTSVSTAYLQISSLKADDTAVYFCARGGFGSSYWYFDVWGQGSLVTVSS VL: DIQLTQSPSSLSASVGDRVSITCKASQDVSIAVAWYQQKPGKAPKLLIYSASYRYTGVPDRFSGSGSGTDFTLTISSLQPEDFAVYYCQQHYITPLTFGAGTKVEIK
